{
  "source": "patent US20190177382A1",
  "about": "(US Dept. of Health and Human Services, published 2019)",
  "binders": {"B1": {"name": "VEGF165 3S (human VEGF165 R123E/R124E/R159E) (ligand)", "chain": "APMAEGGGQNHHEVVKFMDVYQRSYCHPIETLVDIFQEYPDEIEYIFKPSCVPLMRCGGCCNDEGLECVPTEESNITMQIMRIKPHQGQHIGEMSFLQHNKCECRPKKDRARQENPCGPCSEEEKHLFVQDPQTCKCSCKNTDSRCKARQLELNERTCECDKPRR", "notes": "Secreted into conditioned media by 293/KDR transfectants, made with the native signal peptide; also called VEGF 3S"}},
  "molecular_target": "T1, KDR ectodomain-IgG fusion protein (UniProt P35968 20-764, limits assumed)",
  "T1 construct": "extracellular domain; also called KDR-Ig ectodomain; not shown: IgG portion of the fusion",
  "T1 sequence (P35968 20-764 limits assumed)": "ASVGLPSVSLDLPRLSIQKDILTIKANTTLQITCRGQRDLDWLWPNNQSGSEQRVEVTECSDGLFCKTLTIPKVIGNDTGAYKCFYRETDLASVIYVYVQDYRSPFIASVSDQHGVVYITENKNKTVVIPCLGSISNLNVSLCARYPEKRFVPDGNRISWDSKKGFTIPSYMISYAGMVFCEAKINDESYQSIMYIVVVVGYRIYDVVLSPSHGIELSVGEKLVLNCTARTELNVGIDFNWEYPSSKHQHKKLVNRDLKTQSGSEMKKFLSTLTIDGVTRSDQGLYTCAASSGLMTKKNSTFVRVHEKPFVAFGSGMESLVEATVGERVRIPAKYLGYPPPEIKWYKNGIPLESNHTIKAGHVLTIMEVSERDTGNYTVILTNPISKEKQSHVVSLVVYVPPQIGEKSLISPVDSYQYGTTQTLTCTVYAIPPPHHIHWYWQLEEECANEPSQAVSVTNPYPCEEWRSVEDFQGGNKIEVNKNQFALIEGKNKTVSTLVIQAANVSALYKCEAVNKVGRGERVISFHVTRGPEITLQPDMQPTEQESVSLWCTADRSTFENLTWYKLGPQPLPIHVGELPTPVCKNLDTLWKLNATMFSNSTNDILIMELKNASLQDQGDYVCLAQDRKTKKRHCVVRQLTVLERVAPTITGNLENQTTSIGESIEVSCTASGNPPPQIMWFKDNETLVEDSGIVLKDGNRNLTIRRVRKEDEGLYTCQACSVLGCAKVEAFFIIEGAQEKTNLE",
  "test": "electrochemiluminescent saturation binding; VEGF captured by a non-neutralizing anti-VEGF mAb, KDR-Ig ectodomain titrated, detected with tagged anti-KDR",
  "data": [
    {"binder": "B1", "values": [
      {"measurement": "Kd", "result": "~0.019", "unit": "nM"}
    ]}
  ]
}
